Measured values taken from article PMC6509359 (Molecular Cell, 2019).
Substitutions are numbered along the chain they refer to. Names may count otherwise. “And” between values parts separate entries of the source, which are not always exact repeats. Equal entries are not always repeated.

B1: Flag-USP25 (2-1055) (enzyme, human, UniProt Q9UHP3 2-1055, looked up)
chain: TVEQNVLQQSAAQKHQQTFLNQLREITGINDTQILQQALKDSNGNLELAVAFLTAKNAKTPQQEETTYYQTALPGNDRYISVGSQADTNVIDLTGDDKDDLQRAIALSLAESNRAFRETGITDEEQAISRVLEASIAENKACLKRTPTEVWRDSRNPYDRKRQDKAPVGLKNVGNTCWFSAVIQSLFNLLEFRRLVLNYKPPSNAQDLPRNQKEHRNLPFMRELRYLFALLVGTKRKYVDPSRAVEILKDAFKSNDSQQQDVSEFTHKLLDWLEDAFQMKAEEETDEEKPKNPMVELFYGRFLAVGVLEGKKFENTEMFGQYPLQVNGFKDLHECLEAAMIEGEIESLHSENSGKSGQEHWFTELPPVLTFELSRFEFNQALGRPEKIHNKLEFPQVLYLDRYMHRNREITRIKREEIKRLKDYLTVLQQRLERYLSYGSGPKRFPLVDVLQYALEFASSKPVCTSPVDDIDASSPPSGSIPSQTLPSTTEQQGALSSELPSTSPSSVAAISSRSVIHKPFTQSRIPPDLPMHPAPRHITEEELSVLESCLHRWRTEIENDTRDLQESISRIHRTIELMYSDKSMIQVPYRLHAVLVHEGQANAGHYWAYIFDHRESRWMKYNDIAVTKSSWEELVRDSFGGYRNASAYCLMYINDKAQFLIQEEFNKETGQPLVGIETLPPDLRDFVEEDNQRFEKELEEWDAQLAQKALQEKLLASQKLRESETSVTTAQAAGDPEYLEQPSRSDFSKHLKEETIQIITKASHEHEDKSPETVLQSAIKLEYARLVKLAQEDTPPETDYRLHHVVVYFIQNQAPKKIIEKTLLEQFGDRNLSFDERCHNIMKVAQAKLEMIKPEEVNLEEYEEWHQDYRKFRETTMYLIIGLENFQRESYIDSLLFLICAYQNNKELLSKGLYRGHDEELISHYRRECLLKLNEQAAELFESGEDREVNNGLIIMNEFIVPFLPLLLVDEMEEKDILAVEDMRNRWCSYLGQEMEPHLQEKLTDFLPKLLDCSMEIKSFHEPPKLPSYSTHELCERFARIMLSLSRTPADGR
notes: tetrameric and dimeric populations; also called FLAG-tagged USP25; ectopically expressed wild-type USP25; source: HEK293, transfected (pOPINE), in lysate; not shown: Flag, N-terminal, kept
B2: Flag-USP25 (2-1055) P521S F522E (enzyme, human, UniProt Q9UHP3 2-1055, looked up)
chain: B1 chain with P520S, F521E
notes: also called USP25 mutated in the AIM (P521S F522E); source: HEK293, transfected (pOPINE), in lysate; not shown: Flag, N-terminal, kept
B3: Chimera: Human USP28 (149-[AIM of Human USP25]-703) (domain or fragment)
chain: PNPNDWRRVDGWPVGLKNVGNTCWFSAVIQSLFQLPEFRRLVLSYSLPQNVLENCRSHTEKRNIMFMQELQYLFALMMGSNRKFVDPSAALDLLKGAFRSSEEQQQDVSEFTHKLLDWLEDAFQLAVNVNSPRNKSENPMVQLFYGTFLTEGVREGKPFCNNETFGQYPLQVNGYRNLDECLEGAMVEGDVELLPSDHSVKYGQERWFTKLPPVLTFELSRFEFNQSLGQPEKIHNKLEFPQIIYMDRYMYRSKELIRNKRECIRKLKEEIKILQQKLERYVKYGSGPARFPLPDMLKYVIEFASTKPASESCPPESDTHMTLPLSSVHCSVSDQTSKESTSTESSSQDVESTFSSPEDRSVIHKPFTQSRIPMEMPSQPAPRTVTDEEINFVKTCLQRWRSEIEQDIQDLKTCIASTTQTIEQMYCDPLLRQVPYRLHAVLVHEGQANAGHYWAYIYNQPRQSWLKYNDISVTESSWEEVERDSYGGLRNVSAYCLMYINDKLPYFNAEAAPTESDQMSEVEALSVELKHYIQEDNWRFEQEVEEWEEEQSCKI
B4: Human USP25 (157-714) P521S F522E (domain or fragment, UniProt Q9UHP3 157-714, looked up)
chain: NPYDRKRQDKAPVGLKNVGNTCWFSAVIQSLFNLLEFRRLVLNYKPPSNAQDLPRNQKEHRNLPFMRELRYLFALLVGTKRKYVDPSRAVEILKDAFKSNDSQQQDVSEFTHKLLDWLEDAFQMKAEEETDEEKPKNPMVELFYGRFLAVGVLEGKKFENTEMFGQYPLQVNGFKDLHECLEAAMIEGEIESLHSENSGKSGQEHWFTELPPVLTFELSRFEFNQALGRPEKIHNKLEFPQVLYLDRYMHRNREITRIKREEIKRLKDYLTVLQQRLERYLSYGSGPKRFPLVDVLQYALEFASSKPVCTSPVDDIDASSPPSGSIPSQTLPSTTEQQGALSSELPSTSPSSVAAISSRSVIHKSETQSRIPPDLPMHPAPRHITEEELSVLESCLHRWRTEIENDTRDLQESISRIHRTIELMYSDKSMIQVPYRLHAVLVHEGQANAGHYWAYIFDHRESRWMKYNDIAVTKSSWEELVRDSFGGYRNASAYCLMYINDKAQFLIQEEFNKETGQPLVGIETLPPDLRDFVEEDNQRFEKELEEWDAQLAQKALQE
notes: source: E. coli Rosetta2(DE3)pLacI, purified (HisTrap, 3C protease, Resource Q, size exclusion)
B5: Chimera: Human USP25 (157-[AIM of Human USP28]-714) (domain or fragment)
chain: B4 chain with R359S, S360L, V361P, I362K, H363S, S365P, E366L, Q368S, I371S, P372S
B6: Human USP25 (157-714) F522L (domain or fragment, UniProt Q9UHP3 157-714, looked up)
chain: B4 chain with S365P, E366L
notes: as for B4
B7: Human USP25 (157-714) Q524S (domain or fragment, UniProt Q9UHP3 157-714, looked up)
chain: B4 chain with S365P, E366F, Q368S
notes: as for B4
B8: Human USP25 (157-714) F522A (domain or fragment, UniProt Q9UHP3 157-714, looked up)
chain: B4 chain with S365P, E366A
notes: as for B4
B9: Human USP25 (157-714) P521A (domain or fragment, UniProt Q9UHP3 157-714, looked up)
chain: B4 chain with S365A, E366F
notes: as for B4
B10: Human USP28 (149-703) L415E I419E (domain or fragment, UniProt Q96RU2 149-703, looked up)
chain: PNPNDWRRVDGWPVGLKNVGNTCWFSAVIQSLFQLPEFRRLVLSYSLPQNVLENCRSHTEKRNIMFMQELQYLFALMMGSNRKFVDPSAALDLLKGAFRSSEEQQQDVSEFTHKLLDWLEDAFQLAVNVNSPRNKSENPMVQLFYGTFLTEGVREGKPFCNNETFGQYPLQVNGYRNLDECLEGAMVEGDVELLPSDHSVKYGQERWFTKLPPVLTFELSRFEFNQSLGQPEKIHNKLEFPQIIYMDRYMYRSKELIRNKRECIRKEKEEEKILQQKLERYVKYGSGPARFPLPDMLKYVIEFASTKPASESCPPESDTHMTLPLSSVHCSVSDQTSKESTSTESSSQDVESTFSSPEDSLPKSKPLTSSRSSMEMPSQPAPRTVTDEEINFVKTCLQRWRSEIEQDIQDLKTCIASTTQTIEQMYCDPLLRQVPYRLHAVLVHEGQANAGHYWAYIYNQPRQSWLKYNDISVTESSWEEVERDSYGGLRNVSAYCLMYINDKLPYFNAEAAPTESDQMSEVEALSVELKHYIQEDNWRFEQEVEEWEEEQSCKI
notes: also called variant with the insertion-destabilizing mutation; source: E. coli Rosetta2(DE3)pLacI, purified (HisTrap, 3C protease, Resource Q, size exclusion)
B11: Human USP28 (1-1077) (enzyme, UniProt Q96RU2 1-1077, looked up)
chain: MTAELQQDDAAGAADGHGSSCQMLLNQLREITGIQDPSFLHEALKASNGDITQAVSLLTDERVKEPSQDTVATEPSEVEGSAANKEVLAKVIDLTHDNKDDLQAAIALSLLESPKIQADGRDLNRMHEATSAETKRSKRKRCEVWGENPNPNDWRRVDGWPVGLKNVGNTCWFSAVIQSLFQLPEFRRLVLSYSLPQNVLENCRSHTEKRNIMFMQELQYLFALMMGSNRKFVDPSAALDLLKGAFRSSEEQQQDVSEFTHKLLDWLEDAFQLAVNVNSPRNKSENPMVQLFYGTFLTEGVREGKPFCNNETFGQYPLQVNGYRNLDECLEGAMVEGDVELLPSDHSVKYGQERWFTKLPPVLTFELSRFEFNQSLGQPEKIHNKLEFPQIIYMDRYMYRSKELIRNKRECIRKLKEEIKILQQKLERYVKYGSGPARFPLPDMLKYVIEFASTKPASESCPPESDTHMTLPLSSVHCSVSDQTSKESTSTESSSQDVESTFSSPEDSLPKSKPLTSSRSSMEMPSQPAPRTVTDEEINFVKTCLQRWRSEIEQDIQDLKTCIASTTQTIEQMYCDPLLRQVPYRLHAVLVHEGQANAGHYWAYIYNQPRQSWLKYNDISVTESSWEEVERDSYGGLRNVSAYCLMYINDKLPYFNAEAAPTESDQMSEVEALSVELKHYIQEDNWRFEQEVEEWEEEQSCKIPQMESSTNSSSQDYSTSQEPSVASSHGVRCLSSEHAVIVKEQTAQAIANTARAYEKSGVEAALSEVMLSPAMQGVILAIAKARQTFDRDGSEAGLIKAFHEEYSRLYQLAKETPTSHSDPRLQHVLVYFFQNEAPKRVVERTLLEQFADKNLSYDERSISIMKVAQAKLKEIGPDDMNMEEYKKWHEDYSLFRKVSVYLLTGLELYQKGKYQEALSYLVYAYQSNAALLMKGPRRGVKESVIALYRRKCLLELNAKAASLFETNDDHSVTEGINVMNELIIPCIHLIINNDISKDDLDAIEVMRNHWCSYLGQDIAENLQLCLGEFLPRLLDPSAEIIVLKEPPTIRPNSPYDLCSRFAAVMESIQGVSTVTVK
notes: USP28, human, residues 1-1077 (1,077 aa); also called full-length USP28; source: E. coli Rosetta2(DE3)pLacI, purified (HisTrap, 3C protease, Resource Q, size exclusion)
B12: Human USP28 (1-703) (domain or fragment, UniProt Q96RU2 1-703, looked up)
chain: MTAELQQDDAAGAADGHGSSCQMLLNQLREITGIQDPSFLHEALKASNGDITQAVSLLTDERVKEPSQDTVATEPSEVEGSAANKEVLAKVIDLTHDNKDDLQAAIALSLLESPKIQADGRDLNRMHEATSAETKRSKRKRCEVWGENPNPNDWRRVDGWPVGLKNVGNTCWFSAVIQSLFQLPEFRRLVLSYSLPQNVLENCRSHTEKRNIMFMQELQYLFALMMGSNRKFVDPSAALDLLKGAFRSSEEQQQDVSEFTHKLLDWLEDAFQLAVNVNSPRNKSENPMVQLFYGTFLTEGVREGKPFCNNETFGQYPLQVNGYRNLDECLEGAMVEGDVELLPSDHSVKYGQERWFTKLPPVLTFELSRFEFNQSLGQPEKIHNKLEFPQIIYMDRYMYRSKELIRNKRECIRKLKEEIKILQQKLERYVKYGSGPARFPLPDMLKYVIEFASTKPASESCPPESDTHMTLPLSSVHCSVSDQTSKESTSTESSSQDVESTFSSPEDSLPKSKPLTSSRSSMEMPSQPAPRTVTDEEINFVKTCLQRWRSEIEQDIQDLKTCIASTTQTIEQMYCDPLLRQVPYRLHAVLVHEGQANAGHYWAYIYNQPRQSWLKYNDISVTESSWEEVERDSYGGLRNVSAYCLMYINDKLPYFNAEAAPTESDQMSEVEALSVELKHYIQEDNWRFEQEVEEWEEEQSCKI
notes: USP28, human, residues 1-703; source: E. coli Rosetta2(DE3)pLacI, purified (HisTrap, 3C protease, Resource Q, size exclusion)

Molecular target: the molecule itself
Assay: native gel or EMSA; native PAGE of lysates of HEK293 cells transfected with FLAG- or HA-tagged proteins, immunoblotting; recombinant USP25 tetramer and dimer fractions as size standard

Protein | stoichiometry N
B1 | 4 and 2
B2 | 2

Molecular target: the molecule itself
Assay: SEC-MALS; 100 μL of 1-2 mg/mL protein on Superdex 200 10/300, 0.5 mL/min, PBS + 2 mM DTT

Protein | stoichiometry N
B3 | 2
B4 | 2
B5 | 2
B6 | 2
B7 | 2
B8 | 2
B9 | 2
B10 | 2
B11 | 2
B12 | 2
